{"source": "patent US6767887", "proteins": {"B1": {"name": "dipeptidyl peptidase IV (protein)", "chain": "MKTPWKVLLGLLGAAALVTIITVPVVLLNKGTDDATADSRKTYTLTDYLKNTYRLKLYSLRWISDHEYLYKQENNILVFNAEYGNSSVFLENSTFDEFGHSINDYSISPDGQFILLEYNYVKQWRHSYTASYDIYDLNKRQLITEERIPNNTQWVTWSPVGHKLAYVWNNDIYVKIEPNLPSYRITWTGKEDIIYNGITDWVYEEEVFSAYSALWWSPNGTFLAYAQFNDTEVPLIEYSFYSDESLQYPKTVRVPYPKAGAVNPTVKFFVVNTDSLSSVTNATSIQITAPASMLIGDHYLCDVTWATQERISLQWLRRIQNYSVMDICDYDESSGRWNCLVARQHIEMSTTGWVGRFRPSEPHFTLDGNSFYKIISNEEGYRHICYFQIDKKDCTFITKGTWEVIGIEALTSDYLYYISNEYKGMPGGRNLYKIQLSDYTKVTCLSCELNPERCQYYSVSFSKEAKYYQLRCSGPGLPLYTLHSSVNDKGLRVLEDNSALDKMLQNVQMPSKKLDFIILNETKFWYQMILPPHFDKSKKYPLLLDVYAGPCSQKADTVFRLNWATYLASTENIIVASFDGRGSGYQGDKIMHAINRRLGTFEVEDQIEAARQFSKMGFVDNKRIAIWGWSYGGYVTSMVLGSGSGVFKCGIAVAPVSRWEYYDSVYTERYMGLPTPEDNLDHYRNSTVMSRAENFKQVEYLLIHGTADDNVHFQQSAQISKALVDVGVDFQAMWYTDEDHGIASSTAHQHIYTHMSHFIKQCFSLP"}}, "key": {"GLP-1-(7-36)-NH2, P01275": {"target": "T1, GLP-1-(7-36)-NH2, P01275", "T1 chain": "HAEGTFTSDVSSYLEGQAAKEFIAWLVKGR"}, "[1]": {"target": "T2, [Ala^2,Nle^14,Arg^30]-Ex-3-(1-30)-NH2", "T2 chain": "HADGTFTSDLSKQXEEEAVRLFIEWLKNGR"}}}
{"protein": "B1", "values": [{"measurement": "Substrate for DDP-IV", "setting": "GLP-1-(7-36)-NH2, P01275", "value": 50, "unit": "% proteolysis"}, {"measurement": "Substrate for DDP-IV", "setting": "[1]", "value": "no proteolysis"}]}
